One test concerns the target T1, GST-nsP3ΔHVD (chikungunya virus, UniProt Q8JUX6 1334-1657).
T1 chain: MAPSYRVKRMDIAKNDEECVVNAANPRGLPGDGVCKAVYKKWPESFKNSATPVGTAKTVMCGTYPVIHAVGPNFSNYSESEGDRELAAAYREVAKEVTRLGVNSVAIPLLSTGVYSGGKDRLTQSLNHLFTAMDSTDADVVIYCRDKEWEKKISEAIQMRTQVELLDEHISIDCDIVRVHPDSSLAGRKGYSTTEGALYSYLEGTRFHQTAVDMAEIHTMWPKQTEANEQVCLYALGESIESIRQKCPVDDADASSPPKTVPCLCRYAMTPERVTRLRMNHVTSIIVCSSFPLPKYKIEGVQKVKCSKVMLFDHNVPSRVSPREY
Put plainly: GST pull-down with purified proteins, western blot with anti-FHL1. In general terms: In western blotting, separated proteins are transferred to a membrane and probed.

A further test concerns the target T2, GST-nsP3 (chikungunya virus, UniProt Q8JUX6 1334-1856).
T2 chain: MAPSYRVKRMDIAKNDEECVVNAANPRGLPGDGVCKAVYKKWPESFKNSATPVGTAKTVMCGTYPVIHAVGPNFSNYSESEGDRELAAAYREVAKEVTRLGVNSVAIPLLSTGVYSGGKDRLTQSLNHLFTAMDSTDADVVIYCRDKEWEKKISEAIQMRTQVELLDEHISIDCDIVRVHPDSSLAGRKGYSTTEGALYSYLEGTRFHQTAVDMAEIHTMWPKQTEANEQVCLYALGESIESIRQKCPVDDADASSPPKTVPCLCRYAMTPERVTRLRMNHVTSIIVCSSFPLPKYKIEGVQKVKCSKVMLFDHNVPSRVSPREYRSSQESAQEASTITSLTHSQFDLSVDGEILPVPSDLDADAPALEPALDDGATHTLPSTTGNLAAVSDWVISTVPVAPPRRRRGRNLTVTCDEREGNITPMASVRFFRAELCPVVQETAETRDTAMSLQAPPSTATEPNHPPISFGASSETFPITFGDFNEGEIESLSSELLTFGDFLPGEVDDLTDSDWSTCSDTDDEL
The description is as above.

For another test, the target named is G3BP1 (UniProt Q13283 2-466). As to the kind of experiment: co-immunoprecipitation in ΔFHL1 cells.
Chain of G3BP1 (Q13283 2-466 limits assumed): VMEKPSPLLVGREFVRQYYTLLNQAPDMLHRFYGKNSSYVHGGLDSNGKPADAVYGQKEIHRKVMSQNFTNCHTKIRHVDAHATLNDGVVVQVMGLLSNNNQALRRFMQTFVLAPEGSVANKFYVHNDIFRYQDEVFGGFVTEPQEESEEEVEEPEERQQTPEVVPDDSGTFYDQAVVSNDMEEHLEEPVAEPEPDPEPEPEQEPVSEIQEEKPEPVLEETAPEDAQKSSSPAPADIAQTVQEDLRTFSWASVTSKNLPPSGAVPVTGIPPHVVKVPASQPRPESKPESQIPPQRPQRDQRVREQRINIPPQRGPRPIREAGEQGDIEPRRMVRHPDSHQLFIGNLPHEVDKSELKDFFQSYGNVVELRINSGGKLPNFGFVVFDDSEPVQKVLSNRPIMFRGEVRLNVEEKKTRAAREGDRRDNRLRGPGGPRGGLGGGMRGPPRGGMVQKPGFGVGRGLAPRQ
Test [1] deals with T3, C-terminal HA-tagged FHL1A (human, UniProt Q13642-1 2-280).
T3 sequence: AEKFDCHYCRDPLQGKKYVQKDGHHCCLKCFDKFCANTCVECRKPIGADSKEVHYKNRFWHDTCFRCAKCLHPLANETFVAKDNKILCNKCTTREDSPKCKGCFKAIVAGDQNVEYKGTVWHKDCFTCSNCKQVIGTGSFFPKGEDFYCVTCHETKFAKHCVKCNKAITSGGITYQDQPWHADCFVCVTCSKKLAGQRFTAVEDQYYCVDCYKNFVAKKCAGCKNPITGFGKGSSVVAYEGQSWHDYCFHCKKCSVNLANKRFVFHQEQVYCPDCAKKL
As to the kind of experiment: co-immunoprecipitation, immunoblot (FIG. 4).

In test [2] the target is T4, C-terminal HA-tagged FHL2 (UniProt Q14192 1-279).
T4 sequence: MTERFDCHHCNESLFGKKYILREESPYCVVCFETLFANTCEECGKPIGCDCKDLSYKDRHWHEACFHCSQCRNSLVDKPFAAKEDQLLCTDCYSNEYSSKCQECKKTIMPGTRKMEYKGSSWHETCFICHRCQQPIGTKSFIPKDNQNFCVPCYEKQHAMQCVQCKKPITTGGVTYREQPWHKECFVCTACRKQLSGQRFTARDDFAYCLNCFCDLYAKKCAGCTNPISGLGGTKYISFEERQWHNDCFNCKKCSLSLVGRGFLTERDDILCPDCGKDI
As to the kind of experiment: co-immunoprecipitation from co-transfected 293T cells.

B1: 6×His-FHL1A (other)
chain: AEKFDCHYCRDPLQGKKYVQKDGHHCCLKCFDKFCANTCVECRKPIGADSKEVHYKNRFWHDTCFRCAKCLHPLANETFVAKDNKILCNKCTTREDSPKCKGCFKAIVAGDQNVEYKGTVWHKDCFTCSNCKQVIGTGSFFPKGEDFYCVTCHETKFAKHCVKCNKAITSGGITYQDQPWHADCFVCVTCSKKLAGQRFTAVEDQYYCVDCYKNFVAKKCAGCKNPITGFGKGSSVVAYEGQSWHDYCFHCKKCSVNLANKRFVFHQEQVYCPDCAKKL
As to B1, the binding result with GST-nsP3ΔHVD was “no binding”; with GST-nsP3, “binds”.

B2: FLAG-tagged CHIKV nsP3 (pCI-neo-3×FLAG plasmid expressing the CHIKV nsP3) (other)
chain: MAPSYRVKRMDIAKNDEECVVNAANPRGLPGDGVCKAVYKKWPESFKNSATPVGTAKTVMCGTYPVIHAVGPNFSNYSESEGDRELAAAYREVAKEVTRLGVNSVAIPLLSTGVYSGGKDRLTQSLNHLFTAMDSTDADVVIYCRDKEWEKKISEAIQMRTQVELLDEHISIDCDIVRVHPDSSLAGRKGYSTTEGALYSYLEGTRFHQTAVDMAEIHTMWPKQTEANEQVCLYALGESIESIRQKCPVDDADASSPPKTVPCLCRYAMTPERVTRLRMNHVTSIIVCSSFPLPKYKIEGVQKVKCSKVMLFDHNVPSRVSPREYRSSQESAQEASTITSLTHSQFDLSVDGEILPVPSDLDADAPALEPALDDGATHTLPSTTGNLAAVSDWVISTVPVAPPRRRRGRNLTVTCDEREGNITPMASVRFFRAELCPVVQETAETRDTAMSLQAPPSTATEPNHPPISFGASSETFPITFGDFNEGEIESLSSELLTFGDFLPGEVDDLTDSDWSTCSDTDDEL
Consider B2, for which the binding result (with G3BP1; in test [1]; in test [2]) was “binds” throughout.

These data come from patent US20220098681A1 (INSERM INSTITUTE NATIONAL DE LA SANT ET DE LA RECHERCHE M …, published 2022).
